Reference: US8663616B2, “Enzymatic peracid generation for use in oral care products” (E I du Pont de Nemours and Company, priority 2010, dated 2014)

How the values were obtained:
[1] = Retention of perhydrolase on hydroxyapatite (SDS-PAGE band strength); type: binding; conditions: for Unbound (relative band strength): 10 μM enzyme, 0.5% hydroxyapatite, pH 7.2; for Unbound (relative band strength) / HAP Particles (relative band strength) / Wash1 (relative band strength) / Wash2 (relative band strength): relative to enzyme input = 1; for HAP Particles (relative band strength): enzyme retained on particles after washes
Procedure, shortened: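 Enzyme at 10 μM final was incubated 30 min with 0.5% hydroxyapatite nanoparticles in 10 mM phosphate pH 7.2, then centrifuged and washed three times. Input, wash supernatants and particles were run on SDS-PAGE with Coomassie-type staining; band strength scored relative to input (=1).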

[2] = Two-step bleaching of coffee-tea stained bovine enamel (Example 16)
Procedure, shortened: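 Stained bovine enamel blocks, dentin side shielded, pretreated 60 min with 10 μM enzyme in 10 mM phosphate pH 7.2, then rinsed. Bleached in 40 mM triacetin plus 100 mM H2O2 in 50 mM phosphate pH 7.2 (final). Colour measured repeatedly over 1 hr and whiteness index followed.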

[3] = Peracetic acid generated in solution by CE-7 perhydrolase fusions (Example 8); type: biochemical; conditions: 0.5 μM enzyme, 100 mM triacetin, 100 mM H2O2, pH 7.2, 10 min, 37° C.; no enzyme 378.9
Description: The detection of peracetic acid followed the method described in Pinkernell et. al. (Analyst, 1997, 122, 567) using colorimetric detection of 2,2′-azino-bis(3-ethylbenzothiazoline(-6-sulfonate (ABTS) oxidation by peracetic acid. Following the formation of peracetic acid with the addition of triacetin and hydrogen peroxide, 90 μL of solution was added to 10 μL of 0.1 M H3PO4 in a well plate. 50 μL of 1 M acetic acid, 50 μL of 0.5 g/L ABTS and 50 μL of 0.002 g/L of KI was added. The solution was allowed to develop for 5 min. The absorbance of the solution was measured at 405 nm using a microplate reader. The peracetic acid concentration was calculated based on a standard curve developed simultaneously using peracetic acid reagent solution.
Perhydrolase enzymes listed in Table 6 were assessed for solution activities. The method to measure the perhydrolase in solution activity was described in Example 7 by making a 500 μL solution containing 0.5 μM of enzyme, 100 mM triacetin, 100 mM H2O2 in 100 mM phosphate buffer, pH 7.2. The solution was mixed and incubated for 10 min at 37° C. A 10 μL aliquot was removed and diluted for detection as described in Example 7. Peracetic acid concentration was determined using a standard curve generated with a stock solution of peracetic acid (Aldrich). The experiment was also performed with no enzyme present as a control.

[4] = Peracetic acid generation from hydroxyapatite bound CE-7 perhydrolase fusions (Example 8); type: biochemical; conditions: hydroxyapatite particles exposed to 10 μM enzyme, washed; 100 mM triacetin, 100 mM H2O2, 30 min, 37° C.; no enzyme 30-118.8
Procedure, shortened: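 Enzyme (10 μM) bound to washed hydroxyapatite particles in 10 mM phosphate pH 7.2 for 30 min, washed three times, then given 100 mM triacetin plus 100 mM H2O2 in 100 mM phosphate pH 7.2, 30 min, 37 °C. Peracetic acid read by ABTS oxidation at 405 nm against standard curve; no-enzyme control.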

[5] = Peracetic acid generated in solution by C277S CXH fusions (Example 9); conditions: 0.5 μM enzyme, sarkosyl buffer, 100 mM triacetin, 100 mM H2O2, pH 7.2, 10 min, 37° C.
[6] = Peracetic acid from C277S CXH fusions exposed to hydroxyapatite discs (Example 9); conditions: no enzyme control subtracted

| Molecule | Unbound (relative band strength) [1] | binding to / retention on hydroxyapatite (in words) ([1]; after washes) | HAP Particles (relative band strength) [1] | Wash1 (relative band strength) [1] | Wash2 (relative band strength) [1] | retention on hydroxyapatite and enamel (in words) ([2]; 2-step process) | Whiteness Index 0 min ([2]; two-step: 10 μM enzyme 60 min, rinsed, then 40 mM triacetin, 100 mM H2O2, pH 7.2, before step 2) | ΔWI ([2]; two-step, 0 to 60 min) | Whiteness Index 5 min ([2]; two-step, 5 min in triacetin/H2O2) | Whiteness Index 15 min ([2]; two-step, 15 min in triacetin/H2O2) | Whiteness Index 30 min ([2]; two-step, 30 min in triacetin/H2O2) | Whiteness Index 45 min ([2]; two-step, 45 min in triacetin/H2O2) | Whiteness Index 60 min ([2]; two-step, 60 min in triacetin/H2O2) | PAA (ppm) [3] | Peracetic acid (ppm) [4] | Peracetic acid (ppm) In Solution [5] | Peracetic acid (ppm) Exposed to Hydroxyapatite, Disc ([6]; disc-bound enzyme, 100 mM triacetin, 100 mM H2O2, 30 min, 37° C.) | Peracetic acid (ppm) Exposed to Hydroxyapatite, Supernatant ([6]; unbound enzyme in supernatant after 10 μM enzyme on disc) |
| --- | --- | --- | --- | --- | --- | --- | --- | --- | --- | --- | --- | --- | --- | --- | --- | --- | --- | --- |
| EZ-1: Thermotoga maritima acetyl xylan esterase variant C277S, untargeted perhydrolase, SEQ ID NO: 424 (protein, listed as Thermotoga maritima) MAFFDLPLEELKKYRPERYEEKDFDEFWEETLAESEKFPLDPVFERMESHLKTVEAYDVTFSGYRGQRIKGWLLVPKLEEEKLPCVVQYIGYNGGRGFPHDWLFWPSMGYICFVMDTRGQGSGWLKGDTPDYPEGPVDPQYPGFMTRGILDPRTYYYRRVFTDAVRAVEAAASFPQVDQERIVIAGGSQGGGIALAVSALSKKAKALLCDVPFLCHFRRAVQLVDTHPYAEITNFLKTHRDKEEIVFRTLSYFDGVNFAARAKIPALFSVGLMDNISPPSTVFAAYNYYAGPKEIRIYPYNNHEGGGSFQAVEQVKFLKKLFEKG | 0.98 | does not bind to hydroxyapatite | 0.01 | 0.01 | 0.0 | poor retention on hydroxyapatite and enamel | −152.7 | 56.6 | −126.2 | −138.9 | −144.8 | −107.3 | −96.1 | – | – | – | – | – |
| EZ-7: C277S-link1-DenP308-H6, SEQ ID NO: 429 (protein) MAFFDLPLEELKKYRPERYEEKDFDEFWEETLAESEKFPLDPVFERMESHLKTVEAYDVTFSGYRGQRIKGWLLVPKLEEEKLPCVVQYIGYNGGRGFPHDWLFWPSMGYICFVMDTRGQGSGWLKGDTPDYPEGPVDPQYPGFMTRGILDPRTYYYRRVFTDAVRAVEAAASFPQVDQERIVIAGGSQGGGIALAVSALSKKAKALLCDVPFLCHFRRAVQLVDTHPYAEITNFLKTHRDKEEIVFRTLSYFDGVNFAARAKIPALFSVGLMDNISPPSTVFAAYNYYAGPKEIRIYPYNNHEGGGSFQAVEQVKFLKKLFEKGGPGSGGAGSPGSAGGPGSTKPPRTPTANTSRPHHNFGSGGGGSPHHHHHH | 0.5 | – | 0.5 | 0.01 | 0.0 | – | – | – | – | – | – | – | – | 4877.2 ppm | 4453.7 ppm | 5471 ppm | 2017 ppm | 4864 ppm |
